One may read the Kd as a measure of binding affinity in units of concentration. The low end stands for higher affinity, the high end for lower affinity.

Results on seven molecules are retold here after US20240190999A1 (Molecular Partners, published 2024).

In experiment [1] the target is T1, human 4-1BB on transfected HT1080 NF-kB-luciferase reporter cells (human, UniProt Q07011 24-255). In words: cell-based or functional assay.
The target of experiment [2] is T2, biotinylated human 4-1BB (bio.h4-1BB) (human, UniProt Q07011 24-186, limits assumed, biotinylated (site not stated)).
T2 construct: also called CD137
T2 sequence (Q07011 24-186 limits assumed): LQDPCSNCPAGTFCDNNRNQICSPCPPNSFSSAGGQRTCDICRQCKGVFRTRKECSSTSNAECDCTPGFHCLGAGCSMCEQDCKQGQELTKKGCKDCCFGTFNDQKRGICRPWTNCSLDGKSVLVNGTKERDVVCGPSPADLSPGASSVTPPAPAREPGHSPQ
The experiment in a line: SPR (ProteOn XPR36); end of the group's range, tied to #45 by Table 15. Here is the method:
(§1) Assay set-up: Briefly, SPR measurements were performed using a ProteOn XPR36 instrument (BioRad) as described above. Biotinylated human and cynomolgus 4-1BB and human FAP were immobilized either directly or indirectly via NeutrAvidin (˜6000 RU pre-coated) on a GLC chip to reach 600 RU, 700 RU and 2000 RU, respectively. The interaction of FAP-4-1BB bispecific constructs to the coated targets was measured by injecting the bispecific constructs in a serial dilution of 50, 16.7, 5.6, 1.9 and 0.6 nM with an association of 120 s and dissociation of 1800 s using a constant flow rate of 30 μl/min. Targets were regenerated between the individual measurements using 10 mM glycine pH 2 and 124 mM H₃PO₄. The signals were double referenced against the running buffer (PBST) treated control lane.

Experiment [3] has as its target T1, human 4-1BB on transfected HT1080 …. In words: cell-based or functional assay. This is another data set of the same source.
For experiment [4], the target named is T2, biotinylated human 4-1BB (bio.h4-1BB). In words: SPR (ProteOn XPR36), biotinylated h4-1BB immobilised on GLC chip, construct as analyte. The protocol: as §1
Experiment [5] has as its target T3, human fibroblast activation protein (hFAP) (human, UniProt Q12884 26-760, limits assumed).
T3 construct: Recombinant soluble protein; also called human FAP; rhFAP
In words: SPR (ProteOn XPR36), hFAP immobilised on GLC chip, construct as analyte. Here is the method: as §1

Experiment [6] addresses T1, human 4-1BB on transfected HT1080 …. In words: cell-based or functional assay. This is another data set of the same source.
For experiment [7], the target named is T2, biotinylated human 4-1BB (bio.h4-1BB). The experiment in a line: SPR (ProteOn XPR36); end of the group's range, tied to #48 by Table 15. The protocol:
as §1

Experiment [8] addresses T4, human 4-1BB on primary human CD8 T cells (human, UniProt Q07011 24-255). In words: cell-based or functional assay.
For experiment [9], the target named is T4, human 4-1BB on primary human CD8 T cells. In words: cell-based or functional assay. The source holds these as a separate data set.
Experiment [10] has as its target T3, human fibroblast activation protein …. In words: SPR (ProteOn XPR36); end of the group's range, tied to #47 by Table 15. Here is the method:
as §1

T3 sequence (Q12884 26-760 limits assumed): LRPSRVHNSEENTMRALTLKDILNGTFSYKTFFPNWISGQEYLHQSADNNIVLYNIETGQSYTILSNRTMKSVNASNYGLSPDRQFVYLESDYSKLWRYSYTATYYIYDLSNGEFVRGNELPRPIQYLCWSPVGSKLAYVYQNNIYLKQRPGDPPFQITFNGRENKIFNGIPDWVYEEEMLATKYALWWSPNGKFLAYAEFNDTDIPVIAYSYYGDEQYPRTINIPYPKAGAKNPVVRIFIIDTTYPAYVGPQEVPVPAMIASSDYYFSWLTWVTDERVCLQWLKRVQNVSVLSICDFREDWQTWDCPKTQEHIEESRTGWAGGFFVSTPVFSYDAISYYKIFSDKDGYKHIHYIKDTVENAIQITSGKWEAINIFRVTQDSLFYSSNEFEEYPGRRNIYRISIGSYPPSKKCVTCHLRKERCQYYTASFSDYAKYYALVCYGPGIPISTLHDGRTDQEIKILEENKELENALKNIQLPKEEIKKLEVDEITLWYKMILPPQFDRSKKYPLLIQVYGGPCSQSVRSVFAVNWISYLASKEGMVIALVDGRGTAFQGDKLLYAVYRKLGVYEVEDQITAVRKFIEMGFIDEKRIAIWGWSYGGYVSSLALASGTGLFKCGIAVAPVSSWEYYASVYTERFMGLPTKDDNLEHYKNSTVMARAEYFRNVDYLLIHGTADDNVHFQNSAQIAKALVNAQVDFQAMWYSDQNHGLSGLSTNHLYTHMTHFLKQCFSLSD
T4 sequence (Q07011 24-255 limits assumed): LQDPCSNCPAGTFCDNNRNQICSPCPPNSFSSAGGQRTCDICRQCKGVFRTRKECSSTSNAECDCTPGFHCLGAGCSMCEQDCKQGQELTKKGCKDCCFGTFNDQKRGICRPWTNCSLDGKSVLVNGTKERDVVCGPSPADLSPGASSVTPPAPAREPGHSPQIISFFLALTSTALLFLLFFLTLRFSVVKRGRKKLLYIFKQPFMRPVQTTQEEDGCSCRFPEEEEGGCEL
T1 sequence (Q07011 24-255 limits assumed): as above

B1: bispecific construct #45 (designed binder)
chain: MRGSHHHHHHGSDLGEKLLVAALYGQDDEVRILLAAGADVNAKDQWGLTPLHKAALQGHLEIVEVLLKAGADVNAKDERGHTPLHWAARFGHLEIVEVLLKAGADVNAQDQKGYTPADLAALWGHEDIAEVLQKAAGSPTPTPTTPTPTPTTPTPTPTGSDLGDKLLHAAYYGQDDEVRILLAAGADVNAKDTQGLTPLHLAAAIGHLEIVEVLLKAGADVNAKDAYGETPLHLVASRGHLEIVEVLLKAGADVNAQDYSGRTPADLAAEYGHEDIAEVLQKLN
notes: 56 is used; also called FAP-4-1BB bispecific construct #45
As to B1, the “EC50, 4-1BB activation in HT1080 reporter cells in presence of FAP-expressing CHO cells (Population 1)” value (from here on “EC50, 4-1BB activation … (Population 1)”) in [1] worked out at 0.67 nM. In addition, the Kd in experiment [2] was 0.4 to 1.5 nM; in experiment [4], 1.47 nM; in experiment [5], 0.33 nM. Moreover, the “EC50, 4-1BB activation in HT1080 reporter cells in presence of FAP-expressing CHO cells (Population 2)” value (from here on “EC50, 4-1BB activation … (Population 2)”) in experiment [3] was 0.39 nM. In addition, the “EC50, 4-1BB activation in HT1080 reporter cells in presence of FAP-beads” value (from here on “EC50, 4-1BB activation … of FAP-beads”) in [6] was 5.15 nM.

B2: bispecific construct #48 (designed binder)
chain: MRGSHHHHHHGSDLGEKLLVAALYGQDDEVRILLAAGADVNAKDQWGLTPLHKAALQGHLEIVEVLLKAGADVNAKDERGHTPLHWAARFGHLEIVEVLLKAGADVNAQDQKGYTPADLAALWGHEDIAEVLQKAAGSPTPTPTTPTPTPTTPTPTPTGSDLGKKLLEAARAGQDDEVRELLKAGADVNAKDQEHGSTPLHLAANYGHLEIVEVLLKAGADVNAKNWWGNTPLHLAAVYGHLEIVEVLLKAGADVNAKDNHGHTPLHLAAWYGHLEIVEVLLKAGADVNAQDKSGKTPADLAADAGHEDIAEVLQKAA
notes: 56 is used; also called FAP-4-1BB bispecific construct #48
In the case of B2, the “EC50, 4-1BB activation … (Population 1)” value in experiment [1] worked out at 0.28 nM. The Kd in experiment [7] is 0.4 to 1.5 nM; in experiment [4], 0.44 nM; in experiment [5], 0.17 nM. The “EC50, 4-1BB activation … (Population 2)” value in experiment [3] amounted to 0.16 nM. In addition, the “EC50, 4-1BB activation … of FAP-beads” value in experiment [6] amounted to 3.71 nM.

B3: bispecific construct #46 (designed binder)
chain: MRGSHHHHHHGSDLGEKLLVAALYGQDDEVRILLAAGADVNAKDQWGLTPLHKAALQGHLEIVEVLLKAGADVNAKDERGHTPLHWAARFGHLEIVEVLLKAGADVNAQDQKGYTPADLAALWGHEDIAEVLQKAAGSPTPTPTTPTPTPTTPTPTPTGSDLGRKLLQAAQLGQDDEVRELLKAGADVNAKDSRGITPLHVAAWQGHLEIVEVLLKASADVNAKDHAGITPLHLAAFLGHLEIVEVLLKAGADVNAQDQEGRTPADLAALQGHEDIAKVLQKLN
notes: 56 is used; also called FAP-4-1BB bispecific construct #46
Consider B3, for which the “EC50, 4-1BB activation … (Population 1)” value in [1] was 0.73 nM. Further, the “EC50, 4-1BB activation … (Population 2)” value in [3] stood at 0.37 nM. Besides, the Kd in [4] is 1.15 nM; in [5], 0.27 nM. The “EC50, 4-1BB activation … of FAP-beads” value in [6] was determined as 5.85 nM.

B4: bispecific construct #49 (designed binder)
chain: MRGSHHHHHHGSDLGEKLLVAALYGQDDEVRILLAAGADVNAKDQWGLTPLHKAALQGHLEIVEVLLKAGADVNAKDERGHTPLHWAARFGHLEIVEVLLKAGADVNAQDQKGYTPADLAALWGHEDIAEVLQKAAGSPTPTPTTPTPTPTTPTPTPTGSDLGKKLLVAANVGQDDEVRILLAAGADVNAKDYHGYTPLHHAATYGHLEIVEVLLKAGADVNAKDQTGLTPLHLAAAKGHLEIVEVLLKAGADVNAQDHHGYTPADLAAFVGHEDIAVVLQKLN
notes: 56 is used; also called FAP-4-1BB bispecific construct #49
Regarding B4, the “EC50, 4-1BB activation … (Population 1)” value in experiment [1] came out at 0.91 nM. Moreover, the “EC50, 4-1BB activation … (Population 2)” value in [3] worked out at 1.04 nM. The dissociation constant (Kd) in experiment [4] worked out at 0.86 nM; in experiment [5] it was 0.17 nM. For the same molecule, in [6], the “EC50, 4-1BB activation … of FAP-beads” value turned out to be 6.52 nM.

B5: His-MpA (His-tagged version of MpA) (designed binder)
chain: GSDLGKKLLEAARAGQDDEVRELLKAGADVNAKDYFSHTPLHLAARNGHLKIVEVLLKAGADVNAKDFAGKTPLHLAAADGHLEIVEVLLKAGADVNAQDIFGKTPADIAADAGHEDIAEVLQKAAGSPTPTPTTPTPTPTTPTPTPTGSDLGKKLLEAARAGQDDEVRELLKAGADVNAKDVLGWTPLHLAAFEGHLEIVEVLLKAGADVNAKDKKGWTPLQLAARTGHLEIVEVLLKAGADVNAKDHIGATPLHLAAWQGHPEIVEVLLKAGADVNAQDKSGKTPADLAADAGHEDIAEVLQKAAGSPTPTPTTPTPTPTTPTPTPTGSDLGQKLLKAAQEGQDDEVRELLKAGADVNAKDLRGITPLHVAAWQGHLEIVEVLLKAGADVNAKDSKGETPLHLAAFRGHLEIVEVLLKAGADVNAQDQQGETPADLAALAGHVDIAEVLQKAAGSPTPTPTTPTPTPTTPTPTPTGSDLGQKLLKAAQEGQDDEVRELLKAGADVNAKDLRGITPLHVAAWQGHLEIVEVLLKAGADVNAKDSKGETPLHLAAFRGHLEIVEVLLKAGADVNAQDQQGETPADLAALAGHVDIAEVLQKAAGSPTPTPTTPTPTPTTPTPTPTGSDLGKKLLEAARAGQDDEVRELLKAGADVNAKDYFSHTPLHLAARNGHLKIVEVLLKAGADVNAKDFAGKTPLHLAAADGHLEIVEVLLKAGADVNAQDIFGKTPADIAADAGHEDIAEVLQKAA
For the molecule B5, the “EC50, IFNγ secretion of human CD8 T cells (plate-coated hFAP)” value in experiment [8] was 1 to 3 nM. In [9], the “EC50, IFNγ production by primary human CD8 T cells (anti-CD3 plus plate-coated hFAP)” value turned out to be 2.37 nM.

B6: Multispecific binding protein B (MpB) (designed binder)
chain: MRGSHHHHHHGSDLGKKLLEAARAGQDDEVRELLKAGADVNAKDYFSHTPLHLAARNGHLKIVEVLLKAGADVNAKDFAGKTPLHLAAADGHLEIVEVLLKAGADVNAQDIFGKTPADIAADAGHEDIAEVLQKAAGSPTPTPTTPTPTPTTPTPTPTGSDLGEKLLVAALYGQDDEVRELLKAGADVNAKDQWGLTPLHKAALQGHLEIVEVLLKAGADVNAKDERGHTPLHWAARFGHLEIVEVLLKAGADVNAQDQKGYTPADLAALWGHEDIAEVLQKAAGSPTPTPTTPTPTPTTPTPTPTGSDLGQKLLKAAQEGQDDEVRELLKAGADVNAKDLRGITPLHVAAWQGHLEIVEVLLKAGADVNAKDSKGETPLHLAAFRGHLEIVEVLLKAGADVNAQDQQGETPADLAALAGHVDIAEVLQKAAGSPTPTPTTPTPTPTTPTPTPTGSDLGQKLLKAAQEGQDDEVRELLKAGADVNAKDLRGITPLHVAAWQGHLEIVEVLLKAGADVNAKDSKGETPLHLAAFRGHLEIVEVLLKAGADVNAQDQQGETPADLAALAGHVDIAEVLQKAAGSPTPTPTTPTPTPTTPTPTPTGSDLGKKLLEAARAGQDDEVRELLKAGADVNAKDYFSHTPLHLAARNGHLKIVEVLLKAGADVNAKDFAGKTPLHLAAADGHLEIVEVLLKAGADVNAQDIFGKTPADIAADAGHEDIAEVLQKAA
As for B6, in experiment [8], the “EC50, IFNγ secretion of human CD8 T cells (plate-coated hFAP)” value is 1 to 2 nM. In addition, the “EC50, IFNγ production by primary human CD8 T cells (anti-CD3 plus plate-coated hFAP)” value in [9] is 1.54 nM.

B7: bispecific construct #47 (designed binder)
chain: MRGSHHHHHHGSDLGEKLLVAALYGQDDEVRILLAAGADVNAKDQWGLTPLHKAALQGHLEIVEVLLKAGADVNAKDERGHTPLHWAARFGHLEIVEVLLKAGADVNAQDQKGYTPADLAALWGHEDIAEVLQKAAGSPTPTPTTPTPTPTTPTPTPTGSDLGKKLLEAARAGQDDEVRELLKAGADVNAKDTYGETPLHLAAWKGHLEIVEVLLKAGADVNAKDSIGITPLHVAAHHGHLEIVEVLLKAGADVNAKDKWGRTPLHLAALLGHLEIAEVLLKAGADVNAQDKSGKTPADLAADAGHDDIAEVLQKLN
notes: 56 is used; also called FAP-4-1BB bispecific construct #47
Consider B7, for which the “EC50, 4-1BB activation … (Population 1)” value in experiment [1] was determined as 0.36 nM. In experiment [3], the “EC50, 4-1BB activation … (Population 2)” value came out at 0.18 nM. In addition, the dissociation constant (Kd) in experiment [4] was 0.77 nM; in experiment [5], 0.07 nM; in experiment [10], 0.1 to 0.4 nM. Moreover, in experiment [6], the “EC50, 4-1BB activation … of FAP-beads” value is 6.19 nM.
